Reference: paper PMC9332313, “Folding and Binding Mechanisms of the SH2 Domain from Crkl” (Biomolecules, 2022)
Square brackets hold non-standard residues; d marks the D form. Ends that are not written are not given here. * marks the point of attachment. pY = N[C@@H](Cc1ccc(OP(=O)(O)O)cc1)C(=O)O; Dansyl = CN(C)c1cccc2c(S(=O)(=O)*)cccc12

What was measured:
Conditions in all cases: both partners purified
[1] = target: T1, SH2 domain of Crkl protein (residues 1-111), wild type (UniProt P46109 1-111); experiment: stopped-flow fluorescence kinetics (FRET); dansyl-Pax112-123 constant at 2 μM mixed with Crkl-SH2 2 to 10 μM (pseudo-first-order, kon); koff by displacement of the preincubated 2 µM complex with excess non-dansylated Pax112-123 (30 μM); 283 K; 50 mM BisTRIS pH 6.8, 0.5 M NaCl
T1 construct: Crkl adaptor protein, SH2 domain, residues 1-111; Subcloned in pET28b+; all experiments were done on the N-terminally His-tagged protein; also called Crkl-SH2; Crkl SH2 domain; source: E. coli BL21 (DE3), purified (HisTrap nickel column, desalting); not shown: His tag, N-terminal, kept
T1 sequence (P46109 1-111): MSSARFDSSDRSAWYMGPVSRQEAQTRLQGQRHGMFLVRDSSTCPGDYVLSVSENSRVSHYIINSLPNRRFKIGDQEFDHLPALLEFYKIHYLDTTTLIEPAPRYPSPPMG

[2] = target: T2, SH2 domain of Crkl protein (residues 1-111), H33A variant (UniProt P46109 1-111, H33A); experiment: as above
T2 construct: Crkl adaptor protein, SH2 domain, residues 1-111, His33 replaced by alanine; Site-directed mutant of m1 (QuikChange); source: E. coli BL21 (DE3), purified (HisTrap nickel column, desalting); not shown: His tag, N-terminal, kept
T2 sequence (P46109 1-111 H33A): as the sequence (P46109 1-111) above, with H33A counted along it

[3] = target: T3, SH2 domain of Crkl protein (residues 1-111), H80A variant (UniProt P46109 1-111, H80A); experiment: as above
T3 construct: Crkl adaptor protein, SH2 domain, residues 1-111, His80 replaced by alanine; Site-directed mutant of m1 (QuikChange); source: E. coli BL21 (DE3), purified (HisTrap nickel column, desalting); not shown: His tag, N-terminal, kept
T3 sequence (P46109 1-111 H80A): as the sequence (P46109 1-111) above, with H80A counted along it

[4] = target: T4, SH2 domain of Crkl protein (residues 1-111), H91A variant (UniProt P46109 1-111, H91A); experiment: as above
T4 construct: Crkl adaptor protein, SH2 domain, residues 1-111, His91 replaced by alanine; Site-directed mutant of m1 (QuikChange); source: E. coli BL21 (DE3), purified (HisTrap nickel column, desalting); not shown: His tag, N-terminal, kept
T4 sequence (P46109 1-111 H91A): as the sequence (P46109 1-111) above, with H91A counted along it

[5] = target: T1, SH2 domain of Crkl protein (residues …); experiment: stopped-flow fluorescence kinetics (FRET); dansyl-Pax112-123 constant at 2 μM mixed with Crkl-SH2 2 to 10 μM (pseudo-first-order, kon); koff by displacement of the preincubated 2 µM complex with excess non-dansylated Pax112-123 (30 μM); 283 K; 50 mM TrisHCl pH 8.0, 0.5 M NaCl
[6] = target: T2, SH2 domain of Crkl protein (residues …); experiment: as above
[7] = target: T3, SH2 domain of Crkl protein (residues …); experiment: as above
[8] = target: T4, SH2 domain of Crkl protein (residues …); experiment: as above
[9] = target: T2, SH2 domain of Crkl protein (residues …); experiment: stopped-flow fluorescence kinetics (FRET); dansyl-Pax112-123 constant at 2 μM mixed with Crkl-SH2 2 to 10 μM (pseudo-first-order, kon); koff by displacement of the preincubated 2 µM complex with excess non-dansylated Pax112-123 (30 μM); 283 K; 50 mM sodium-HEPES pH 7.5, 0.5 M NaCl
[10] = target: T3, SH2 domain of Crkl protein (residues …); experiment: as above

- Kd [1]: 2400 ± 100 nM
- koff [1]: 21.4 ± 0.2 s⁻¹
- kon [1]: 8.9e+06 ± 400000 M⁻¹ s⁻¹
- Kd [2]: 3400 ± 200 nM
- koff [2]: 22.4 ± 0.5 s⁻¹
- kon [2]: 6.6e+06 ± 400000 M⁻¹ s⁻¹
- Kd [3]: 3100 ± 200 nM
- koff [3]: 21.6 ± 0.4 s⁻¹
- kon [3]: 7.1e+06 ± 400000 M⁻¹ s⁻¹
- Kd [4]: 3000 ± 100 nM
- koff [4]: 23.4 ± 0.4 s⁻¹
- kon [4]: 7.8e+06 ± 300000 M⁻¹ s⁻¹
- Kd [5]: 3100 ± 200 nM
- koff [5]: 41.4 ± 0.9 s⁻¹
- kon [5]: 1.32e+07 ± 700000 M⁻¹ s⁻¹
- Kd [6]: 2000 ± 300 nM
- koff [6]: 29.3 ± 3.4 s⁻¹
- kon [6]: 1.46e+07 ± 1.1e+06 M⁻¹ s⁻¹
- Kd [7]: 2300 ± 300 nM
- koff [7]: 30.1 ± 3.3 s⁻¹
- kon [7]: 1.32e+07 ± 700000 M⁻¹ s⁻¹
- Kd [8]: 2900 ± 100 nM
- koff [8]: 39 ± 0.7 s⁻¹
- kon [8]: 1.32e+07 ± 500000 M⁻¹ s⁻¹
- Kd [9]: 2300 ± 500 nM
- koff [9]: 24.6 ± 3.2 s⁻¹
- kon [9]: 1.08e+07 ± 1.9e+06 M⁻¹ s⁻¹
- Kd [10]: 2000 ± 200 nM
- koff [10]: 27.8 ± 2.3 s⁻¹
- kon [10]: 1.36e+07 ± 1.1e+06 M⁻¹ s⁻¹
B1: dansylated Pax_(112–123) peptide (Dans-GEEEHV-pY-SFPNK) (peptide)
peptide: Dansyl-GEEEHV[pY]SFPNK
notes: The dansyl group is the FRET acceptor of Trp14 of the SH2 domain; source: synthetic peptide, bought: GenScript
